From patent publication US20250195617A1, “Liquid Pharmaceutical Formulations of CNP Compounds” (Ascendis Pharma Growth Disorders A/S, priority 2022, published 2025)
Bridges are numbered along the chain shown (N, C = ends). Where no end group is shown, it is not given here.

Assay: Storage stability of CNP peptide liquid formulations (F33-45), content and purity by RP-HPLC/MS
Format: physicochemical
Conditions: acetate buffer, 5° C., 6 months, LC-MS
Description: All excipient stock solutions, except for phenol and m-cresol, were prepared by combining the required excipients in a volumetric flask and filling it up to 90% of the desired volume with water. The pH of the stock solutions was adjusted using 1 M NaOH solution as required and the volume adjusted to the desired volume with water. The stock solutions were filtered through a 0.2 μm PVDF-filter. Stock solutions of phenol (1.75%) and m-cresol (1.05%) were prepared by adding the preservative to the respective excipient stock solution after filtration. Next, the required amount of CNP was dissolved in the required amount of the desired excipient stock solution and the pH was checked and adjusted if needed with 1 M NaOH. The formulations were filtered through a 0.22 μm PVDF filter and the respective preservative stock solution was added. The formulations were aliquoted ready for incubation.
RP-HPLC/MS to determine the content and purity of CNP (F33-45): Mobile phase A was composed of 0.05% aqueous TFA (v/v) and mobile phase B was composed of 0.04% TFA (v/v) in acetonitrile. A Waters Acquity CSH C18, 130 Å, 1.7 μm, 2.1×100 mm column was used. Flow rate was set to 0.3 ml/min, detection was at a wavelength of 215 nm, the column running temperature was 65° C. and the sample injection load was approx. 3 μg CNP-38 eq. (20 μL of a 0.135 mg/ml sample). Samples were diluted to 0.135 mg/mL with dilution buffer (10 mM succinic acid, 84 g/l trehalose dihydrate, adjusted to pH 5 with 1M Tris). For LCMS the HPLC system was coupled to an LTQ Orbitrap Discovery XL instrument and ESI-MS was performed in the positive mode. The change in content of the TIM, T3M and T6M was determined by peak area comparison to the TO sample. For determination of the purity, all peaks higher than the LOQ (0.10%) and not present in the blank were integrated.
The influence of the buffering agent, pH, tonicity agent, detergent, and preservative on the stability of CNP-38 was evaluated. For this purpose, nine formulations of CNP-38 were prepared at a concentration of 2 mg/mL and incubated for 6 months (Table 16). One formulation each at pH 4.5 (F33), pH 5.0 (F34) and pH 4.0 (F35) in acetate buffer were prepared. L-methionine was used to prevent the oxidation of the methionine residue in the peptide, trehalose dihydrate was used as a tonicity or isotonicity agent, Poloxamer 188 as a detergent and m-cresol as a preservative. Another formulation at pH 4.5 containing the same excipients was prepared, in which trehalose was switched to mannitol (F37). […] The formulations were incubated at 5° C. To evaluate whether acetate adducts are formed in acetate buffer, the same formulation as in F33 was incubated at accelerated conditions at 25° C. (F33, 25° C.). […]

Formation of acetylated species, No acetylated peptides:
DLRVDTKSRAAWARLLQEHPNARKYKGANKKGLSKGCFGLKLDRIGSMSGLGC (disulfide 37-53; listed as Homo sapiens) [CNP-53], GANKKGLSKGCFGLKLDRIGSMSGLGC (disulfide 11-27) [CNP-27], GLSKGCFGLKLDRIGSMSGLGC [CNP-22], PGQEHPNARKYKGANKKGLSKGCFGLKLDRIGSMSGLGC (disulfide 23-39) [PG-CNP-37]
